Experimental data reported in publication PMC12420816 (Nature Communications, 2025).

Target: SARS-CoV-2 nsp16 with uncleaved His6-tag (SARS-CoV-2) (UniProt P0DTD1)
Experiment: native MS

SARS-CoV-2 nsp7-11 polyprotein, tag-free with native (authentic) termini (domain or fragment)
percent of signal as complex: 2%
